Patent US20020142457A1, “Cell having the potentiality of differentiation into cardiomyocytes” (priority 1999, published 2002)
Ends that are not written are not given here.

How the values were obtained:
[1] = system: mouse bone marrow-derived pluripotent stem cells (BMSC); experiment: Quantitative PCR of genes expressed in myotubes from BMSC; assay type: cell-based; conditions: with 5-aza-C 3 μM, cytokine 10 ng/ml
Description: RNAs were collected from the myotubes thus obtained. And genes expressed in the myotubes were analyzed with quantitative PCR analysis using the synthetic oligonucleotides represented by SEQ ID NOS:71 to 78. As a result, PDGF or retinoic acid promoted the expression of MyoD and fTnI genes relating to a skeletal muscle but not cTnI or ANP specifically relating to a myocardium. Next, mouse bone marrow-derived pluripotent stem cells (BMSC) having the potential to differentiate into cardiomyocytes were inoculated in a 60-mm culture dish at a density of 2×10^4 cells/ml and cultured using an incubator at 33° C. under 5% of CO2.
RNAs were collected from the myotubes thus obtained. And genes expressed in the myotubes were analyzed with quantitative PCR using the synthetic oligonucleotides represented by SEQ ID NOS:71 to 78. As a result, the FGF-8, ET-1, midkine and BMP4 each individually promoted the expression of cTnI and ANP gene which are myocardium-specific genes.

[2] = system: Nkx2.5/Csx and GATA4 co-forced expressing bone marrow cells (BMSC-Nkx2.5-GATA4); experiment: Quantitative PCR of genes expressed in myotubes from BMSC-Nkx2.5-GATA4; assay type: cell-based, mouse; conditions: BMSC-Nkx2.5-GATA4, 5-aza-C 3 μM, cytokine 10 ng/ml
Description: From the myotubes thus obtained, RNAs were collected and genes expressed in the myotubes were subjected to quantitative PCR analysis using the synthetic oligonucleotides represented by SEQ ID NOS:71 to 78.

[3] = system: bone marrow cell (BMSC-MesP1); experiment: Differentiation of BMSC-MesP1 with cytokines, phase contrast microscope; assay type: cell-based, mouse; conditions: BMSC-MesP1, 5-aza-C 3 μM; cytokine 10 ng/ml; four weeks
Description: A mouse bone marrow-derived pluripotent stem cell (BMSC-MesP1) having the potential to differentiate into cardiomyocytes in which the MesP1 gene was forced-expressed was obtained using a retrovirus vector in the same manner as in Example 6, and then the differentiation was induced to examine efficiency of differentiation into cardiomyocytes.
The bone marrow cell (BMSC-MesP1) having the potential to differentiate into cardiomyocytes in which MesP1 was forced expressed was plated into a 60-mm culture dish in a density of 2×10^4 cells/ml and cultured at 33° C. in a 5% CO2-incubator. On the next day, 5-aza-C was added to the culture medium to give a final concentration of 3 μM, followed by culturing under five different conditions, namely (i) addition of FGF-8 to give a final concentration of 10 ng/ml (culture dish N), (ii) addition of ET-1 to give a final concentration of 10 ng/ml (culture dish P), (iii) addition of Midkine to give a final concentration of 10 ng/ml (culture dish Q), (iv) addition of BMP4 to give a final concentration of 10 ng/ml (culture dish R), and (v) no addition (culture dish S).
On the next day, the medium was exchanged with a fresh medium in order to eliminate 5-aza-C from the medium, and then the culturing was continued by adding FGF-8 to the culture dish N to give a final concentration of 10 ng/ml, ET-1 to the culture dish P to give a final concentration of 10 ng/ml, Midkine to the culture dish Q to give a final concentration of 10 ng/ml and BMP4 to the culture dish R to give a final concentration of 10 ng/ml. Two days and 4 days thereafter, the medium exchange and addition of FGF-8, ET-1, Midkine or BMP4 were carried out similarly.
Four weeks after the addition of 5-aza-C, morphology of the cells was observed under a phase contrast microscope. As a result, the number of myotube-like cells was not changed greatly by the forced expression of MesP1. In addition, about 50% of the cells became myotube-like cells in the culture dish to which FGF-8, ET-1, Midkine or BMP4 had been added.

[4] = system: bone marrow cell (BMSC-MesP1); experiment: Quantitative PCR of genes expressed in myotube-like cells from BMSC-MesP1; assay type: cell-based, mouse; conditions: BMSC-MesP1, 5-aza-C 3 μM, cytokine 10 ng/ml
Description: Next, RNA was recovered from the thus obtained myotube-like cells, and genes expressing in the myotube-like cells were analyzed by quantitative PCR using the synthetic oligonucleotides shown in SEQ ID NOS:71 to 78. As a result, expression of ANP as a gene specific for a myocardium was accelerated by the forced expression of MesP1.

Row | Molecule | expression of cTnI and ANP gene (myocardium-specific genes) [1] | expression of cTnI and ANP promoted by forced expression of Nkx2.5/Csx and GATA4 [2] | cells became myotube-like cells [3] | expression of ANP accelerated by the forced expression of MesP1 [4]
1 | ET-1: endothelin 1, cytokine (CSCSSLMDKECVYFCHLDIIW; ends and bridges not checked; cysteine pairing not given here; UniProt P05305 53-73, looked up) | promoted | did not further promote | about 50% | did not further accelerate
2 | FGF-8: fibroblast growth factor 8, cytokine (protein, UniProt P55075 23-233, looked up) Fibroblast growth factor 8: QEGPGRGPALGRELASLFRAGREPQGVSQQHVREQSLVTDQLSRRLIRTYQLYSRTSGKHVQVLANKRINAMAEDGDPFAKLIVETDTFGSRVRVRGAETGLYICMNKKGKLIAKSNGKGKDCVFTEIVLENNYTALQNAKYEGWYMAFTRKGRPRKGSKTRQHQREVHFMKRLPRGHHTTEQSLRFEFLNYPPFTRSLRGSQRTWAPEPR | promoted | did not further promote | about 50% | did not further accelerate
3 | midkine: cytokine, amino acid sequence SEQ ID NO:68 (protein, listed as Homo sapiens, CDS (1)..(432)) MQHRGFLLLTLLALLALTSAVAKKKDKVKKGGPGSECAEWAWGPCTPSSKDCGVGFREGTCGAQTQRIRCRVPCNWKKEFGADCKYKFENWGACDGGTGTKVRQGTLKKARYNAQCQETIRVTKPCTPKTKAKAKAKKGKGKD | promoted | did not further promote | about 50% | did not further accelerate
4 | BMP4: bone morphogenic protein 4, cytokine (protein, UniProt P12644 293-408, looked up) Bone morphogenetic protein 4: SPKHHSQRARKKNKNCRRHSLYVDFSDVGWNDWIVAPPGYQAFYCHGDCPFPLADHLNSTNHAIVQTLVNSVNSSIPKACCVPTELSAISMLYLDEYDKVVLKNYQEMVVEGCGCR | promoted | did not further promote | about 50% | did not further accelerate
